Where no end group is shown, it is not given here.
Molecular target: T1, Peptide 2: α-synuclein amino acids 108-117 (10 amino acids) PQEGILEDMP (human, also: biotin, position not given here)
T1 construct: Biotinylated peptide loaded on streptavidin biosensors
T1 peptide: PQEGILEDMP
Assay: BLI (ForteBio Octet Red96), biotinylated peptide on streptavidin biosensors, IGP101 at multiple concentrations
Method: The binding of IGP101 to two biotinylated α-synuclein peptides (SEQ ID NO:10 and SEQ ID NO:11) was determined using the Streptavidin biosensors. Biotinylated peptides were loaded at 5 μg/ml for 700 seconds, 300 seconds for baseline recording and then IGP101 association and dissociation measured for 600 seconds each at multiple concentrations. Double reference sensors were employed in all testing to measure and subtract any observed background signal from nonspecific binding or system noise.
Analysis was performed with ForteBio Data Analysis Software (v8.2). After background subtraction, a 1:1 local kinetic model was fit to the observed association and dissociation curves. Overall KD, Kₒₙ, Koff, and R2 correlation coefficients were determined. Where possible, a global curve fit was also performed for multiple concentrations of the antibody/analyte.

binding result: no binding
B1: IGP101 (antibody, V domains shown)
VH: EVQLVESGGGLVQPKGTLKLSCAASGFSFNTYAMNWVRQAPGKSLEWVARTLSKSNNYATYYADSVKDRFTISRDDSQSMLSLQMNNLKTEDTAMYYCVGAFAYWGQGTLVTVSA
VL: DIVMTQAAPSVPVTPGESVSISCRSSKSLLHSNGNTYLYWFLQRPGQSPQLLIYRMSNLASGVPDRFSGSGSGTAFTLRISRVEAEDVGVYYCMQHLEFPFTFGAGTKLELK
notes: Mouse monoclonal antibody from hybridoma ATCC PTA-9197; It was tested as whole mouse IgG, captured on anti-mouse IgG biosensors; The constant regions and isotype are not explicitly stated; a g2b constant region primer is mentioned only in illustrative cloning methods; also called IGP101 antibody; mouse monoclonal antibody IGP101
